According to US20210299158A1 (NORTHWESTERN UNIVERSITY, published 2021):
One block for each binder: values may come before it. Ends that are not written are not given here. * marks the point of attachment. Biotin = O=C1N[C@H]2[C@H](CS[C@H]2CCCCC(=O)*)N1

What was measured:
[1] = biological target: T1, Collagen type III (human) (human, UniProt P02461 154-1221); assay: plate binding, biotinylated peptide on coated protein, streptavidin-594 fluorescence
T1 construct: Coated on plates; also called collagen III; COL III
T1 sequence (looked up): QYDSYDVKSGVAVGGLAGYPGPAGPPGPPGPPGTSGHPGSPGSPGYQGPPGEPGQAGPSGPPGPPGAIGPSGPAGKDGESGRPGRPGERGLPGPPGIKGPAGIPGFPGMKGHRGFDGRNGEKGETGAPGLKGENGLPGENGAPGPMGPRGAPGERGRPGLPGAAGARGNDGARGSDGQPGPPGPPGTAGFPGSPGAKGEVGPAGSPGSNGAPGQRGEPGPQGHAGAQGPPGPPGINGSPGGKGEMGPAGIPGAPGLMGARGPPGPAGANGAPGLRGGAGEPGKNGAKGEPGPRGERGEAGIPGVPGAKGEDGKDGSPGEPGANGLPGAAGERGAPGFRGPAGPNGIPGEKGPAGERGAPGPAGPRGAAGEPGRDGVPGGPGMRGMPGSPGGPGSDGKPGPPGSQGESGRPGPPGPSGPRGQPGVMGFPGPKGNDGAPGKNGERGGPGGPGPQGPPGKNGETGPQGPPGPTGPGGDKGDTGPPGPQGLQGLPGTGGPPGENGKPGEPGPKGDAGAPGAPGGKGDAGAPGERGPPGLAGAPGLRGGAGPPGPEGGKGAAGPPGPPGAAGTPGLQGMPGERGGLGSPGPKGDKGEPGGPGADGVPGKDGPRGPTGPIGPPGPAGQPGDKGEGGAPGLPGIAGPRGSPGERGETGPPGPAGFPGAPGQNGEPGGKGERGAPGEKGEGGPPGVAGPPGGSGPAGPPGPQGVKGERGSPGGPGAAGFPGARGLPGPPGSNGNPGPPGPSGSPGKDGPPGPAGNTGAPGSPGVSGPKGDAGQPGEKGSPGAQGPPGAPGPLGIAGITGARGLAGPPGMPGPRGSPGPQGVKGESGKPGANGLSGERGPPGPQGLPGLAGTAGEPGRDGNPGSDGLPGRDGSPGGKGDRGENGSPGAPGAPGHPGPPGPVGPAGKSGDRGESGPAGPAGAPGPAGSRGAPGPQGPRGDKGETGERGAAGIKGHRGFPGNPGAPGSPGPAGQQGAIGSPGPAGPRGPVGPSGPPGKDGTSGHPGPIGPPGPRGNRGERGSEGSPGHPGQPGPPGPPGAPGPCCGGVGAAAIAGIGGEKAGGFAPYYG
Procedure: (§1) Peptide and ECM Binding Specificity. Collagens I, II, III, and IV, fibronectin, laminin, and Matrigel were coated onto 96-well black plates at 10 μg/cm². Biotinylated CBP or CBPi were added to coated plates at 0, 1, 10, 100, and 1000 μM overnight at 4° C., after which the plates were washed three times with PBS. Fluorescent streptavidin-594 (4 μg/mL) was added to each well and incubated at room temperature for 2 h, then thoroughly washed with PBS. The plates were read with a fluorescence microplate reader for fluorescence intensity (Ex 591 nm, Em 614 nm). All data were normalized to the background fluorescence intensity of Streptavidin-594 alone directed at each coated protein.
(§2) CBP Selectively Binds to ECM with High Specificity to Collagen IV. […] Bound peptides were subsequently probed with fluorescently labeled streptavidin. CBP, but not CBPi, bound specifically to collagen IV coated surfaces with high relative affinity, and to collagen I coated surfaces to a much lesser extent. […] Neither CBP nor CBPi binds to collagen II, collagen III, or fibronectin.

[2] = biological target: T2, Fibronectin from human plasma (human, UniProt P02751-8 32-2296, limits assumed); assay: as above
T2 construct: Coated on plates; also called FN
Procedure: as §1, §2

Collagen type I (rat) = biological target: T3, Collagen type I (rat) (rat, UniProt P02454 152-1207; P02466 86-1125); assay: as above
T3 construct: Coated on plates at 10 ug/cm^2; the chains come from general knowledge; also called collagen I; COL I
Procedure: as §1, §2

Collagen type IV (mouse) [3] = biological target: T4, Collagen type IV (mouse) (mouse, UniProt P02463 28-1669; P08122 26-1707); assay: as above
T4 construct: Coated on plates at 10 ug/cm^2; the chains come from general knowledge; also called collagen IV; COL IV
Procedure: as §1, §2

Collagen type IV (mouse) [4] = biological target: T4, Collagen type IV (mouse); assay: plate binding, biotinylated CBP at 100 µM on coated collagen IV, streptavidin-594 fluorescence normalised to background
Procedure: as §1, §2

Collagen type IV (mouse) [5] = biological target: T4, Collagen type IV (mouse); assay: plate binding, biotinylated CBP at 1000 µM on coated collagen IV, streptavidin-594 fluorescence normalised to background
Procedure: as §1, §2

[6] = biological target: Collagen IV (surface coated, Example 2); assay: Cy5 fluorescence after 24 hour incubation on surface coated collagen IV; conjugate at 30 mg/ml; reference is the scrambled CBPi-Hep(Cy5) conjugate

T4 sequence (P02463 28-1669, chain 1 of 2): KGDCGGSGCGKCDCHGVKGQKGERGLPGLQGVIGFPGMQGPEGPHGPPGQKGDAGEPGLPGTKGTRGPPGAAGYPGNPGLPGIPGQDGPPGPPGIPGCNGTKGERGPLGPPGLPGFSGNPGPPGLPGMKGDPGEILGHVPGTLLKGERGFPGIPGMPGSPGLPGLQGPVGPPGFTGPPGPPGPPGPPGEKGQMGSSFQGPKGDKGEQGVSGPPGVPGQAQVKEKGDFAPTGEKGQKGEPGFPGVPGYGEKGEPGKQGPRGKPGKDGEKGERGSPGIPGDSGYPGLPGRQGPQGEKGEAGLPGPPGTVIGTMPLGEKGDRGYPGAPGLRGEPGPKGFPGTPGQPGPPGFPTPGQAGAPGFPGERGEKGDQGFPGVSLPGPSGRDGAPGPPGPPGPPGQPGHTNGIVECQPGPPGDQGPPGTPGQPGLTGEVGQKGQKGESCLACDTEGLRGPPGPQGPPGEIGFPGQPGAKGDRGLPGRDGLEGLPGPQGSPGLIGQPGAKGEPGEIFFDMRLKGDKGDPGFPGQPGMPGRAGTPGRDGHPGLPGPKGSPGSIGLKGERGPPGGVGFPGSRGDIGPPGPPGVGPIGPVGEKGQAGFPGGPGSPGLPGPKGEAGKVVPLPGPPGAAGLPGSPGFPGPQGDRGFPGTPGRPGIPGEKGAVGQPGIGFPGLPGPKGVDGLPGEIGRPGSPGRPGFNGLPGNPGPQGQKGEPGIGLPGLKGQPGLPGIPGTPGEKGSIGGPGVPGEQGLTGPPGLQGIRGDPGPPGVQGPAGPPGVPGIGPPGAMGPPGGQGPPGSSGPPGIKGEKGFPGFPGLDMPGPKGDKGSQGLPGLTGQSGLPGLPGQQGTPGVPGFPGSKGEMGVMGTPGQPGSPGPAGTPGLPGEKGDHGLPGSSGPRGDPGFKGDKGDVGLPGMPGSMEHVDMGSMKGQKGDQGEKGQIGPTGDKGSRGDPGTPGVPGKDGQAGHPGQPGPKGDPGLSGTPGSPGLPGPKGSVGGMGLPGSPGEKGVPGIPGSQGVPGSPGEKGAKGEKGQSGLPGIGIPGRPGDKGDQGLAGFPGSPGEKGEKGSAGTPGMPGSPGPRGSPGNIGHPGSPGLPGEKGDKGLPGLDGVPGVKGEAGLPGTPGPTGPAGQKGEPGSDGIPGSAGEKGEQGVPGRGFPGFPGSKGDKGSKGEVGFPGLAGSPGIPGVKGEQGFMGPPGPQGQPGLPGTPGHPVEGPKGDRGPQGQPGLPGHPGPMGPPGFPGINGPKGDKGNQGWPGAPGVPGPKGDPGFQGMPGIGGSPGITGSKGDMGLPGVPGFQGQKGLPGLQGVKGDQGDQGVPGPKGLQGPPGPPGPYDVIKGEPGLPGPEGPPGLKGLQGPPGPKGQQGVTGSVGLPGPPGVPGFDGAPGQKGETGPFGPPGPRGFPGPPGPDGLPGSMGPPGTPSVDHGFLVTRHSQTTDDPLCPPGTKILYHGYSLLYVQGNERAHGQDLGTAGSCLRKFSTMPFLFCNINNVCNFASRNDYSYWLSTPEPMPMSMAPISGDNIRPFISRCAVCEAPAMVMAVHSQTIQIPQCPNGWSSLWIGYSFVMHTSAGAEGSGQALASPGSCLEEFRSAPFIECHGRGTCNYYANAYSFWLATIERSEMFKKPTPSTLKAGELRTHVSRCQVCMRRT
T4 sequence (P08122 26-1707, chain 2 of 2): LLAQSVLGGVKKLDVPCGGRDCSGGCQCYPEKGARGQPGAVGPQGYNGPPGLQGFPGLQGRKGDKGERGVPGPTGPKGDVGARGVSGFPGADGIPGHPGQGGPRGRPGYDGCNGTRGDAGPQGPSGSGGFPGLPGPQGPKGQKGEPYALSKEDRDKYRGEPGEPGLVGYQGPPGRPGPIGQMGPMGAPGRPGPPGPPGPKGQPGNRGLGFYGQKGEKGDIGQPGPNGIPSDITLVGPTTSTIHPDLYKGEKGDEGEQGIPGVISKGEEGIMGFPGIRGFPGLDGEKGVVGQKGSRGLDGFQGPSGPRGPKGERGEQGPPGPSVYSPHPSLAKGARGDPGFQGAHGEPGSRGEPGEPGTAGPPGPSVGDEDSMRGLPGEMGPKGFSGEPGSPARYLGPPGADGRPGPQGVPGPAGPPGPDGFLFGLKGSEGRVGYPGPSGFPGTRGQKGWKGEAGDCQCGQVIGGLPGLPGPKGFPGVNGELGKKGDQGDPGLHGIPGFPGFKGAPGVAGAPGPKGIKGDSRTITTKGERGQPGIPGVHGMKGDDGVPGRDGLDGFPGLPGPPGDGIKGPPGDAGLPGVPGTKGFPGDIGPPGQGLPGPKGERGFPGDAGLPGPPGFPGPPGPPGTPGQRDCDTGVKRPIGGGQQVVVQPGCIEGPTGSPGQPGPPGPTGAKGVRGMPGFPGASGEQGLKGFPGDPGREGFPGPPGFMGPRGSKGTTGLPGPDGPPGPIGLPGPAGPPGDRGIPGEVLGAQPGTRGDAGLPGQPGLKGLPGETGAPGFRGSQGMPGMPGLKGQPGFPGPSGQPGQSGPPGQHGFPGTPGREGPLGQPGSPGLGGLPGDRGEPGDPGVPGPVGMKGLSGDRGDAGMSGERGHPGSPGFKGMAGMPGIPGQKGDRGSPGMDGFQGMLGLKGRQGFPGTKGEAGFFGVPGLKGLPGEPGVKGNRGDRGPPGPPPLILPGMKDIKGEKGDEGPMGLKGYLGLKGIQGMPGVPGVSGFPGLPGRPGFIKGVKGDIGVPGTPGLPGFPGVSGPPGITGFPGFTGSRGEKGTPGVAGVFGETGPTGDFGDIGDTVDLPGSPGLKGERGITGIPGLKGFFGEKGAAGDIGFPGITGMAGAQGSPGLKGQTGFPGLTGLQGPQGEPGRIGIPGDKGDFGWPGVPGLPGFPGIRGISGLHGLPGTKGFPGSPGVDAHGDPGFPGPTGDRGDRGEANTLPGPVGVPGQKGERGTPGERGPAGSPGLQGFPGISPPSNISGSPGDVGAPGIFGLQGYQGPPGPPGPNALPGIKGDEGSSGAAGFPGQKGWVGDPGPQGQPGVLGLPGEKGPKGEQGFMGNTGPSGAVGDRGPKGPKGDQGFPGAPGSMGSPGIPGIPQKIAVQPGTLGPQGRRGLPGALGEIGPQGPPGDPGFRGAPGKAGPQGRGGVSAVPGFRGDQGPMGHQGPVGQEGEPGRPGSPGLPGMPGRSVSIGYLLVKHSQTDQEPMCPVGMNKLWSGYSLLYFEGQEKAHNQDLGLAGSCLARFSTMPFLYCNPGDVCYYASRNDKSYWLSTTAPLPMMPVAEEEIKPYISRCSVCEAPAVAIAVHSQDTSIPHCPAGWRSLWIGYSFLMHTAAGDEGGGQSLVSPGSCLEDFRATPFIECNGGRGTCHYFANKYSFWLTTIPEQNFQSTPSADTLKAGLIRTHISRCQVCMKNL

- binding result [1]: no binding (tested: 1000 µM)
- binding result [2]: no binding (tested: 1000 µM)
- binding result (Collagen type I (rat)): no binding (tested: 1000 µM)
- binding result (Collagen type IV (mouse) [3]): no binding (tested: 1000 µM)
B1: Biotinylated inactive, nonbinding peptide CBPi (biotin-CDEFQRSTTY) (peptide)
peptide: Biotin-CDEFQRSTTY
notes: also called biotinylated CBPi

- binding result [1]: no binding (tested: 1000 µM)
- binding result [2]: no binding (tested: 1000 µM)
- fold increase in surface fluorescence intensity (Collagen type IV (mouse) [4]): 3.85 fold
- fold increase in surface fluorescence intensity (Collagen type IV (mouse) [5]): 12.1 fold
B2: Biotinylated collagen-binding peptide CBP (biotin-CQDSETRTFY) (peptide)
peptide: Biotin-CQDSETRTFY
notes: also called biotinylated CBP

- fold binding against the scrambled CBPi control [6]: 4 fold
B3: CBP-Hep(Cy5), improved batch (Heparin(Cy5)-CBP conjugate, 20 C, 10:1 molar ratio CBP:Hep-Cy5) (peptide)
peptide: CQDSETRTFY
modifications: also: peptide conjugated by EDC/NHS to carboxyl groups of Cy5-labelled heparin (28 kD), attachment site not given here
